pKd: −log10 of the molar value.
Biological target: neonatal Fc Receptor, FcRn (UniProt P55899)
Assay: SPR

Substance	pKd
ACE2-IgG4-Fc fusion construct 1 (ACE2 Q18-G732 wildtype fused to IgG4-Fc S228P) (from UniProt Q9BYF1 18-732)	5.54
ACE2-IgG4-Fc fusion construct 3 (ACE2 Q18-G732 H374N/H378N fused to IgG4-Fc S228P) (from UniProt Q9BYF1 18-732)	5.41
